Experimental data: patent publication US5985616, “Chimeric mammalian NPY Y5 receptors” (Schering Corporation, dated 1999)
Values belong to the binder of their own block, whether it stands above or below them.

What was measured:
[1] = target: rat NPY Y5 receptor expressed from pCR3.1-rY5A (rat, UniProt Q63634); test: radioligand binding at 100 pM [125I]PYY, membranes of COS1 cells transiently expressing the construct
Protocol: (§1) PYY and 2.5–5 ug of membrane protein (50 ul final volume). […] PYY and various concentrations of competing peptides (200 ul final volume). […] Binding assays were incubated at room temperature for 90 minutes and were terminated by rapid vacuum filtration through glass fiber filters in 96-well format (Multiscreen FB Filter Plates, Millipore, Bedford, Mass. or Unifilter-96 GF/C, Packard, Meriden, Conn.) Prior to filtration the glass fiber filters were pretreated with 100 ul of 0.3 % polyethylenimine. Each filter was then washed 3 times with 100 ul of PBS. Radioactivity trapped on the filters was then counted by standard gamma counting techniques.
(§2) All receptors were expressed transiently in COS1 cells.

[2] = target: T1, rat/human hybrid NPY Y5 receptor (rat/human chimera); test: as above
T1 chain: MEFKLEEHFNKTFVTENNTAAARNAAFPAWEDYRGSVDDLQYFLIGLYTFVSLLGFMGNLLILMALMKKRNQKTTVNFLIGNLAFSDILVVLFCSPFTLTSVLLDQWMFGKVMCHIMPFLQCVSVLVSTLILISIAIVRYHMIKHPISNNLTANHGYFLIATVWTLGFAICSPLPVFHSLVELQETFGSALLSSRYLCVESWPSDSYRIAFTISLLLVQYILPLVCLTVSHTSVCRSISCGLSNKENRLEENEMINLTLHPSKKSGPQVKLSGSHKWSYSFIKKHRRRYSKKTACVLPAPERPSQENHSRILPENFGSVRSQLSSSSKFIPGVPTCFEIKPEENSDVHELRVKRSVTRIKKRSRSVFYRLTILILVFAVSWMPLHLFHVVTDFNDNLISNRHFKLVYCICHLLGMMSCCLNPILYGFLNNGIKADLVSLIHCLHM
Protocol: as §1, §2

[3] = target: T2, human NPY Y5 receptor (human, UniProt Q15761); test: as above
Protocol: as §1, §2

[4] = target: T1, rat/human hybrid NPY Y5 receptor; test: competition with 0.1 nM [125I]PYY, membranes of COS1 cells transiently expressing the receptor
Protocol: as §1
(§3) Peptide affinities were measured in competition binding assays with membranes from COS1 cells transiently expressing the human Y_5 and rat/human hybrid Y_5 receptors.

[5] = target: T2, human NPY Y5 receptor; test: as above
Protocol: as §1, §3

Level of Expression (fmol/mg protein), radioligand bound at 100 pM [1]: 100 fmol/mg protein
Level of Expression (fmol/mg protein), radioligand bound at 100 pM [2]: 298 fmol/mg protein
Level of Expression (fmol/mg protein), radioligand bound at 100 pM [3]: 103 fmol/mg protein
B1: [125I] porcine peptide YY (ligand)
peptide: not shown
modifications: 125I label

Ki [4]: 75.6 nM
Ki [5]: 60 nM
B2: Rat PP (ligand)
peptide: APLEPMYPGDYATHEQRAQYETQLRRYINTLTRPRY

Ki [4]: 2.86 nM
B3: Human PP (ligand)
peptide: APLEPVYPGDNATPEQMAQYAADLRRYINMLTRPRY
